Experimental data published in patent publication US9663815B2, “Cytosolically-active peroxidases as reporters for microscopy” (Massachusetts Institute of Technology, priority 2011, dated 2017).
Numbering of substitutions follows the chain as printed. Numbers in names are those of the source. Entries after “also recorded” stand apart in the source; their conditions may differ.

B1: wt APX: pea cytosolic ascorbate peroxidase (Pisum sativum), wild type, about 28 kD, dimeric (protein, listed as Pisum sativum)
chain: MGKSYPTVSPDYQKAIEKAKRKLRGFIAEKKCAPLILRLAWHSAGTFDSKTKTGGPFGTIKHQAELAHGANNGLDIAVRLLEPIKEQFPIVSYADFYQLAGVVAVEITGGPEVPFHPGREDKPEPPPEGRLPDATKGSDHLRDVFGKAMGLSDQDIVALSGGHTIGAAHKERSGFEGPWTSNPLIFDNSYFTELLTGEKDGLLQLPSDKALLTDSVFRPLVEKYAADEDVFFADYAEAHLKLSELGFAEA
B2: mAPX: double mutant K14D/E112K of pea APX (SEQ ID NO:1), monomeric (protein, listed as Pisum sativum)
chain: B1 chain with K14D, E112K

Key:
HEK cells = assay: DAB staining of transfected cells (brightfield); assay type: cell-based; settings: for DAB staining activity in mitochondrial matrix: mitochondrial matrix-targeted constructs, HEK cells
Method: Next, the activity of wt APX and mAPX was compared in mammalian cells.
(§1) To generate a monomeric APX with improved activity, the two mAPX mutations (K14D/E112K) were added to each of the activity-enhanced mutants. […] The sextuple mutant (K14D, E112K, W41F, D133A, T135F, K136F=mAPX−FFAF), was compared to mAPX+W41F within cells. HEK cells were transfected with constructs targeted to the mitochondrial matrix (Table 3), while COS-7 cells were transfected with constructs fused to the C-terminus of connexin 43 (Table 3). After fixation, the cells were treated with DAB and H2O2 to generate DAB polymer. […] After fixation, cells were stained with anti-Flag (for matrix) or anti-myc (for connexin) antibody to visualize peroxidase expression levels. […] Therefore mAPX+W41F (K14D/E112K/W41F) was selected, denoted as “APEX” (for Enhanced APX), as the optimized reporter for subsequent experiments.
A solution of 4% formaldehyde (freshly depolymerized from paraformaldehyde) with 2% glutaraldehyde in 10 mM phosphate buffered saline (PBS) was added to cells 24 hours after transfection. Cells were treated for 3 min at room temperature, then 30 min on ice. Cells were then washed 5×2 min using ice cold 10 mM PBS. Cells were blocked with 20 mM glycine for 5 min on ice. Cells were then washed 5×2 min with ice-cold 10 mM PBS. Cells were then treated with an ice-cold solution of DAB (0.5 mg/mL) and H2O2 (0.03%) in 10 mM PBS for 20 min. Cells were then washed 5×2 min with ice-cold 10 mM PBS. Cells were treated with 2% OsO4 in ice-cold 10 mM PBS for 30 min, then washed 5×2 min with ice-cold distilled deionized water. Cells were then placed under ice-cold 2% aqueous uranyl acetate for 24 hours.
(§2) Any cell displaying detectable GFP fluorescence was considered transfected. Contact sites between neighboring transfected cells were identified using DIC imaging. Gap junctions were identified as lines of GFP fluorescence unambiguously overlaying with the plasma membrane of two transfected cells based on DIC. DAB stain intensity for APX-NES variants was analyzed using SlideBook. Transfected cells were identified by nuclear YFP fluorescence. In each transfected cell, a representative DAB-stained region was encircled, and its average brightfield intensity was calculated. Background intensity, determined for each field of view by encircling a representative region in the cytosol of an untransfected cell, was subtracted out. The bar graph in FIG. 2c represents mean data from >60 transfected cells.

connexin43 (Cx43) = assay: Connexin43 fusion localization to gap junctions; assay type: cell-based, rat; settings: fused to connexin43
Method: Both mAPX and wt APX were fused to connexin43 (Cx43), a protein that is sensitive to oligomeric tags (FIG. 4d) (McKinney, et. al., Nat Meth 6, 131-133 (2009); Lauf, et. al., FEBS letters 498, 11-15 (2001)).
as §1, §2

[1] = Gel filtration chromatography, oligomerization state; assay type: physicochemical
Method: APX, fluorescent protein, or miniSOG preparations were diluted to the desired concentrations using chilled (4° C.) PBS and then allowed to incubate at room temperature for 30 min to overnight. Samples (100 μL) were run on a Waters HPLC system over a Superdex 75 10/300 column (GE Healthcare) that had been pre-equilibrated in PBS, pH 7.4. Samples were run isocratically in PBS at a flow rate of 0.5 mL/min. Elution of APX was monitored at 280 nm and 405 nm (heme absorbance). Empower software (Waters) was used for analysis of elution profiles. Apparent MWs were determined against low molecular weight standards (GE). […] The apparent MW of the monomer for wt APX was assumed to be equal to the apparent MW of mAPX at 0.25 μM.
To investigate whether this localization is an artifact of APEX dimerization at high concentrations, the experiment was repeated using a tandem dimer of APX^W41F (two APX^W41F proteins linked with a short amino acid chain, denoted tdAPX) as well as miniSOG in place of APEX. Additionally, gel filtration chromatography (GFC) was used to assess the relative abundance of oligomers that formed at increasing tdAPX concentrations in vitro (5 μM, 20 μM, and 47 μM). Three different linker lengths (18, 23, and 28 amino acids) were tested. His6-tagged proteins were expressed and purified from E. coli. All three variants gave a major peak with an apparent molecular weight (MW) of ˜56 kDa, as expected for tdAPX. The apparent MW of the major peak remained constant as a function of concentration for all three constructs. […] Therefore, the 28 amino acid linker variant was selected as the optimized tandem dimer to be used in EM experiments.

Molecule | DAB staining activity in mitochondrial matrix (HEK cells) | localization of connexin43 fusion / gap junction formation (connexin43 (Cx43)) | oligomerization state ([1]; PBS pH 7.4) | activity toward DAB (DAB stain) (HEK cells; expressed throughout the cytosol via NES fusion) | oligomerization state ([1]; PBS pH 7.4, listed as APX K14D/E112K)
B1 | comparably active | abnormal retention inside cells | predominantly dimeric at 0.25 μM; also recorded: runs as a dimer | – | –
B2 | comparably active | – | comparable to EYFP and much more monomeric than both wt APX and mEos2 | less active than wt APX | most monomericity
